# Source: the supplement of paper PMC9112550, “Optimization of the antimicrobial peptide Bac7 by deep mutational scanning” (BMC Biology, 2022)
# Tested on: Escherichia coli TOP10
# Experiment: shrunken log2 fold change of peptide-encoding DNA abundance (4.5 h post-induction vs induction); higher = less antimicrobial activity (less host growth inhibition)
# Details: time post-induction: 4.5 h; library: site-saturation at positions 5, 18, 19, 20
# 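Note: peptides expressed intracellularly from a pBAD plasmid library in pooled LB shake-flask culture, induced with 0.3% L-arabinose, DNA abundance read by NGS, three biological replicates, DESeq2 with apeglm shrinkage.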
row,Sequence,shrunken log2 fold change
1,RRIRLRPPRLPRPRPRPENAPRP,-0.000678
2,RRIRDRPPRLPRPRPRPSLEPRP,0.245
3,RRIRLRPPRLPRPRPRPDKTPRP,-0.146
4,RRIRQRPPRLPRPRPRPVGGPRP,2.52
5,RRIRLRPPRLPRPRPRPNIYPRP,-0.585
6,RRIRCRPPRLPRPRPRPEETPRP,0.143
7,RRIRMRPPRLPRPRPRPQDHPRP,-0.0101
8,RRIRFRPPRLPRPRPRPGTFPRP,-0.492
9,RRIRRRPPRLPRPRPRPMKEPRP,0.135
10,RRIRCRPPRLPRPRPRPMIPPRP,-0.231
11,RRIRWRPPRLPRPRPRPWIPPRP,-0.0989
12,RRIRCRPPRLPRPRPRPQWVPRP,-0.103
13,RRIRGRPPRLPRPRPRPMRIPRP,2.34
14,RRIRARPPRLPRPRPRPVNMPRP,-0.527
15,RRIRSRPPRLPRPRPRPVNMPRP,-0.103
16,RRIRERPPRLPRPRPRPPCAPRP,-0.0458
17,RRIRFRPPRLPRPRPRPVNGPRP,-0.746
18,RRIRGRPPRLPRPRPRPTKPPRP,0.0691
19,RRIRMRPPRLPRPRPRPTQDPRP,1.24
20,RRIRYRPPRLPRPRPRPPKGPRP,-0.163
21,RRIRPRPPRLPRPRPRPYWGPRP,-0.201
22,RRIRYRPPRLPRPRPRPIFPPRP,-0.23
23,RRIRYRPPRLPRPRPRPSFMPRP,-0.759
24,RRIRHRPPRLPRPRPRPAQMPRP,0.127
25,RRIRARPPRLPRPRPRPAKLPRP,0.196

row,Sequence,shrunken log2 fold change
1,RRIRYRPPRLPRPRPRPNFWPRP,0.293
2,RRIRARPPRLPRPRPRPPTRPRP,1.29
3,RRIRVRPPRLPRPRPRPQNVPRP,-0.51
4,RRIRPRPPRLPRPRPRPQICPRP,-0.0262
5,RRIRTRPPRLPRPRPRPDDQPRP,-0.052
6,RRIRCRPPRLPRPRPRPNVIPRP,-0.374
7,RRIRRRPPRLPRPRPRPELSPRP,0.0649
8,RRIRSRPPRLPRPRPRPPCRPRP,0.426
9,RRIRWRPPRLPRPRPRPKQEPRP,0.0489
10,RRIRSRPPRLPRPRPRPPKHPRP,0.2
11,RRIRLRPPRLPRPRPRPYHEPRP,-1.6
12,RRIRFRPPRLPRPRPRPHLPPRP,-0.0118
13,RRIRGRPPRLPRPRPRPPRAPRP,1.25
14,RRIRGRPPRLPRPRPRPNVRPRP,0.265
15,RRIRHRPPRLPRPRPRPMAMPRP,0.00505
16,RRIRTRPPRLPRPRPRPQVYPRP,-0.168
17,RRIRPRPPRLPRPRPRPMVCPRP,-0.0948
18,RRIRYRPPRLPRPRPRPCMPPRP,-0.123
19,RRIRFRPPRLPRPRPRPDWSPRP,-0.214
20,RRIRCRPPRLPRPRPRPRYYPRP,-0.612
21,RRIRTRPPRLPRPRPRPYFKPRP,-0.577
22,RRIRKRPPRLPRPRPRPHYTPRP,-0.395
23,RRIRIRPPRLPRPRPRPNREPRP,-0.0355
24,RRIRWRPPRLPRPRPRPNGPPRP,-0.0107
25,RRIRFRPPRLPRPRPRPDQDPRP,-0.00191

row,Sequence,shrunken log2 fold change
1,RRIRYRPPRLPRPRPRPFSYPRP,-0.145
2,RRIRARPPRLPRPRPRPAGTPRP,0.308
3,RRIRHRPPRLPRPRPRPQYPPRP,-0.161
4,RRIRERPPRLPRPRPRPFNAPRP,-0.328
5,RRIRFRPPRLPRPRPRPPYWPRP,0.191
6,RRIRIRPPRLPRPRPRPACDPRP,-0.0913
7,RRIRNRPPRLPRPRPRPIDRPRP,0.00281
8,RRIRIRPPRLPRPRPRPFSHPRP,-0.177
9,RRIRKRPPRLPRPRPRPDLCPRP,0.741
10,RRIRLRPPRLPRPRPRPNWTPRP,-0.084
11,RRIRKRPPRLPRPRPRPEWKPRP,0.0315
12,RRIRNRPPRLPRPRPRPWACPRP,0.0014
13,RRIRMRPPRLPRPRPRPGRNPRP,0.344
14,RRIRERPPRLPRPRPRPIKYPRP,-0.351
15,RRIRIRPPRLPRPRPRPTCWPRP,0.151
16,RRIRMRPPRLPRPRPRPASRPRP,0.201
17,RRIRKRPPRLPRPRPRPQPQPRP,0.817
18,RRIRPRPPRLPRPRPRPVQTPRP,0.00686
19,RRIRVRPPRLPRPRPRPMRRPRP,0.392
20,RRIRWRPPRLPRPRPRPWQAPRP,0.00325
21,RRIRFRPPRLPRPRPRPVWWPRP,0.148
22,RRIRLRPPRLPRPRPRPLIWPRP,0.0251
23,RRIRSRPPRLPRPRPRPMKKPRP,-0.0833
24,RRIRVRPPRLPRPRPRPEPKPRP,0.13
25,RRIRTRPPRLPRPRPRPRWTPRP,-0.0339

row,Sequence,shrunken log2 fold change
1,RRIRRRPPRLPRPRPRPHEEPRP,0.0957
2,RRIRARPPRLPRPRPRPEEPPRP,1.24
3,RRIRSRPPRLPRPRPRPDDSPRP,-0.237
4,RRIRGRPPRLPRPRPRPPTEPRP,1.04
5,RRIRWRPPRLPRPRPRPQVFPRP,-0.0323
6,RRIRWRPPRLPRPRPRPIRTPRP,-0.228
7,RRIRRRPPRLPRPRPRPFTPPRP,-0.0158
8,RRIRGRPPRLPRPRPRPVVLPRP,0.4
9,RRIRCRPPRLPRPRPRPQGGPRP,-0.107
10,RRIRARPPRLPRPRPRPGAAPRP,1.1
11,RRIRNRPPRLPRPRPRPRQVPRP,-0.306
12,RRIRWRPPRLPRPRPRPFWRPRP,0.111
13,RRIRHRPPRLPRPRPRPCCKPRP,1.89
14,RRIRGRPPRLPRPRPRPRQWPRP,0.585
15,RRIRARPPRLPRPRPRPYRVPRP,-0.211
16,RRIRYRPPRLPRPRPRPYHIPRP,-0.23
17,RRIRLRPPRLPRPRPRPDFNPRP,-0.444
18,RRIRGRPPRLPRPRPRPYIHPRP,-0.252
19,RRIRRRPPRLPRPRPRPRDSPRP,-0.0748
20,RRIRWRPPRLPRPRPRPWAPPRP,0.479
21,RRIRYRPPRLPRPRPRPNDTPRP,-0.921
22,RRIRCRPPRLPRPRPRPWCKPRP,0.145
23,RRIRPRPPRLPRPRPRPHDQPRP,0.134
24,RRIRYRPPRLPRPRPRPRNNPRP,-0.738
25,RRIRQRPPRLPRPRPRPGLCPRP,-0.0449

row,Sequence,shrunken log2 fold change
1,RRIRVRPPRLPRPRPRPWQGPRP,0.0284
2,RRIRPRPPRLPRPRPRPKIHPRP,-0.427
3,RRIRQRPPRLPRPRPRPSHYPRP,-0.224
4,RRIRMRPPRLPRPRPRPMTQPRP,0.22
5,RRIRDRPPRLPRPRPRPNELPRP,-0.0493
6,RRIRIRPPRLPRPRPRPLKLPRP,-0.838
7,RRIRGRPPRLPRPRPRPCVDPRP,1.17
8,RRIRKRPPRLPRPRPRPEQDPRP,0.0646
9,RRIRERPPRLPRPRPRPCWDPRP,-0.00421
10,RRIRDRPPRLPRPRPRPYNMPRP,-0.0758
11,RRIRRRPPRLPRPRPRPVGLPRP,0.111
12,RRIRQRPPRLPRPRPRPHQKPRP,-0.0904
13,RRIRCRPPRLPRPRPRPREPPRP,0.211
14,RRIRTRPPRLPRPRPRPMVTPRP,0.06
15,RRIRGRPPRLPRPRPRPTWHPRP,0.468
16,RRIRERPPRLPRPRPRPECIPRP,0.248
17,RRIRGRPPRLPRPRPRPNHFPRP,-0.0611
18,RRIRVRPPRLPRPRPRPRVYPRP,-0.587
19,RRIRSRPPRLPRPRPRPYESPRP,-0.26
20,RRIRQRPPRLPRPRPRPTPLPRP,0.487
21,RRIRHRPPRLPRPRPRPEVCPRP,0.116
22,RRIRMRPPRLPRPRPRPLIYPRP,-0.0335
23,RRIRFRPPRLPRPRPRPQYDPRP,-0.75
24,RRIRWRPPRLPRPRPRPVNGPRP,-0.295
25,RRIRGRPPRLPRPRPRPWCQPRP,0.224

row,Sequence,shrunken log2 fold change
1,RRIRPRPPRLPRPRPRPGPDPRP,0.28
2,RRIRIRPPRLPRPRPRPAQFPRP,0.0396
3,RRIRIRPPRLPRPRPRPYFRPRP,-0.0907
4,RRIRPRPPRLPRPRPRPKIKPRP,-0.0894
5,RRIRIRPPRLPRPRPRPNEHPRP,-0.459
6,RRIRFRPPRLPRPRPRPNRMPRP,0.0762
7,RRIRTRPPRLPRPRPRPIPEPRP,-0.0588
8,RRIRDRPPRLPRPRPRPPPMPRP,0.519
9,RRIRERPPRLPRPRPRPNCWPRP,0.659
10,RRIRRRPPRLPRPRPRPYIWPRP,-0.335
11,RRIRHRPPRLPRPRPRPRCMPRP,-0.153
12,RRIRSRPPRLPRPRPRPFWMPRP,-0.293
13,RRIRERPPRLPRPRPRPATQPRP,0.00813
14,RRIRLRPPRLPRPRPRPQMSPRP,-0.111
15,RRIRFRPPRLPRPRPRPHPCPRP,-0.231
16,RRIRDRPPRLPRPRPRPRSIPRP,-0.0279
17,RRIRWRPPRLPRPRPRPGSVPRP,0.306
18,RRIRYRPPRLPRPRPRPRSCPRP,-0.434
19,RRIRNRPPRLPRPRPRPNWPPRP,0.142
20,RRIRARPPRLPRPRPRPIMRPRP,0.491
21,RRIRKRPPRLPRPRPRPCCAPRP,1.3
22,RRIRCRPPRLPRPRPRPVWRPRP,0.358
23,RRIRNRPPRLPRPRPRPFFRPRP,-0.378
24,RRIRWRPPRLPRPRPRPPTYPRP,-0.104
25,RRIRTRPPRLPRPRPRPEPNPRP,-0.0182
